Measured values taken from patent EP3801029B1 (Morehouse School of Medicine, dated 2024).

How the values were obtained:
Mortalin [1] = molecular target: T1, Mortalin (UniProt P38646 47-679); experiment: peptide pull-down from Jurkat cell lysate, Western blot
T1 construct: Endogenous protein from Jurkat cells (a human cell line); also called Glucose-regulated protein 75; GRP75

Mortalin [2] = molecular target: T1, Mortalin; experiment: peptide pull-down from Jurkat cell lysate, Western blot with anti-mortalin antibody
E. coli DnaK protein = molecular target: T2, E. coli DnaK protein (Escherichia coli, UniProt P0A6Y8 2-638); experiment: ANTI-FLAG M2 pull-down from E. coli lysate, Western blot with anti-DnaK antibody
T2 construct: Endogenous protein from E. coli lysate; also called heat shock protein 70; Hsp70
T2 sequence (P0A6Y8 2-638 limits assumed): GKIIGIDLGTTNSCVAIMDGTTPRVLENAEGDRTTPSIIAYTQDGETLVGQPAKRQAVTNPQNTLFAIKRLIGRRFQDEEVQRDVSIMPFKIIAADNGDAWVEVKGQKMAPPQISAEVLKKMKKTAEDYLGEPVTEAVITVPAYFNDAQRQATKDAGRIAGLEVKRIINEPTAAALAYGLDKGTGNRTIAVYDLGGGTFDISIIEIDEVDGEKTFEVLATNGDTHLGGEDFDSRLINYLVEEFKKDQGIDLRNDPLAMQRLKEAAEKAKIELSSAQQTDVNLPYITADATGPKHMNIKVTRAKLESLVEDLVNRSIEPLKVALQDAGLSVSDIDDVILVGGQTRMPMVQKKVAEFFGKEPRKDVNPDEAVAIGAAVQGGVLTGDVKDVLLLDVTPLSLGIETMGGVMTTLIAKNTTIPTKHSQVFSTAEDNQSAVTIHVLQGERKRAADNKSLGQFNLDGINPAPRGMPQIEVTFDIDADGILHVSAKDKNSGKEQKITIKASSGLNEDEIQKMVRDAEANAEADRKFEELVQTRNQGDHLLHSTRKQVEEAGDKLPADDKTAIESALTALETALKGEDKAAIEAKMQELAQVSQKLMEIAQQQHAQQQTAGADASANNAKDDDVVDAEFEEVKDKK

T1 sequence (P38646 47-679 limits assumed): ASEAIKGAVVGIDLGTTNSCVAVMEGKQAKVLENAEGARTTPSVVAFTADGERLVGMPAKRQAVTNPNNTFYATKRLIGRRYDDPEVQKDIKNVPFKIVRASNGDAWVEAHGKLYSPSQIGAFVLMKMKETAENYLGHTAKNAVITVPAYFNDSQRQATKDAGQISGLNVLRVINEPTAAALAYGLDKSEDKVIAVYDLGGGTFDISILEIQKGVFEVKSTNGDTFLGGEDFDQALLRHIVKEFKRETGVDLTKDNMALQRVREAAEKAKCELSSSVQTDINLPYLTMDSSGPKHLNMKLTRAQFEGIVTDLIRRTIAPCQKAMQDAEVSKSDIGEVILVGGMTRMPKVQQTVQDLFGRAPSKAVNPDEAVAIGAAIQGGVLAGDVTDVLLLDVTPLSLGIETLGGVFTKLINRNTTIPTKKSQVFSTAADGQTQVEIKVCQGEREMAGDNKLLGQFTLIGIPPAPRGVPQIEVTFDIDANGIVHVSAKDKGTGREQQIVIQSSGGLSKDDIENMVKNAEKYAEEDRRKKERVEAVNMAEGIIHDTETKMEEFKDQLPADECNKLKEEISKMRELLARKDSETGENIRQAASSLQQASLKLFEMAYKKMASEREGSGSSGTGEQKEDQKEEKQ

| Binder | binding result (Mortalin [1]) | binding result (Mortalin [2]) | binding result (E. coli DnaK protein) |
| --- | --- | --- | --- |
| VGFPVAAVGFPVDYKDDDDK (also called SMR peptide; antagonist) [synthetic HIV-1 Nef SMRwt peptide (VGFPVAAVGFPVDYKDDDDK)] | binds |  |  |
| AGFPVAAAGFPVDYKDDDDK (also called negative control peptide; mutant SMR peptide) [synthetic HIV-1 Nef SMRmut peptide (AGFPVAAAGFPVDYKDDDDK)] |  | no binding | no binding (tested: 1 µg peptide with 1 mg E. coli lysate) |
